The results in this text go back to publication PMC5041027 (Membranes, 2016).

This assay has as its target Bacillus anthracis protective antigen, 63 kDa activated form (PA63), as ion channels in a tethered b (B. anthracis, UniProt P13423). Nature of the assay: SPR. As to conditions: both partners purified.

Sequence of Bacillus anthracis protective antigen, 63 kDa activated form (PA63), as ion channels in a tethered b (P13423 197-764): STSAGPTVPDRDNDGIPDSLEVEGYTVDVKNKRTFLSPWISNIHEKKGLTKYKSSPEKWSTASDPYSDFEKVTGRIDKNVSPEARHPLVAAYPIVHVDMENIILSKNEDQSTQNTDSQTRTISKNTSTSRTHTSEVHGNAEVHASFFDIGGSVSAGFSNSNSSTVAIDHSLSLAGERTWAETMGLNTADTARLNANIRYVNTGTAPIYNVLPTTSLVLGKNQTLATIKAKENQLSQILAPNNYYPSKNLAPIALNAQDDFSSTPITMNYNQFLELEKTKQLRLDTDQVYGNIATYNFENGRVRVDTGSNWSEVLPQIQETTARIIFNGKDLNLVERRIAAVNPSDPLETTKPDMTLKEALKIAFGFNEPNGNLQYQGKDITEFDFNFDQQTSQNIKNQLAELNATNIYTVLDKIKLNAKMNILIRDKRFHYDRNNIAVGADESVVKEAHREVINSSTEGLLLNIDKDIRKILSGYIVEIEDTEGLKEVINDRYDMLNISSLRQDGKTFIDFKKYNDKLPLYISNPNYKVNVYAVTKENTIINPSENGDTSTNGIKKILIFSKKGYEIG

B1: Bacillus anthracis Lethal Factor (natural protein)
chain: AGGHGDVGMHVKEKEKNKDENKRKDEERNKTQEEHLKEIMKHIVKIEVKGEEAVKKEAAEKLLEKVPSDVLEMYKAIGGKIYIVDGDITKHISLEALSEDKKKIKDIYGKDALLHEHYVYAKEGYEPVLVIQSSEDYVENTEKALNVYYEIGKILSRDILSKINQPYQKFLDVLNTIKNASDSDGQDLLFTNQLKEHPTDFSVEFLEQNSNEVQEVFAKAFAYYIEPQHRDVLQLYAPEAFNYMDKFNEQEINLSLEELKDQRMLARYEKWEKIKQHYQHWSDSLSEEGRGLLKKLQIPIEPKKDDIIHSLSQEEKELLKRIQIDSSDFLSTEEKEFLKKLQIDIRDSLSEEEKELLNRIQVDSSNPLSEKEKEFLKKLKLDIQPYDINQRLQDTGGLIDSPSINLDVRKQYKRDIQNIDALLHQSIGSTLYNKIYLYENMNINNLTATLGADLVDSTDNTKINRGIFNEFKKNFKYSISSNYMIVDINERPALDNERLKWRIQLSPDTRAGYLENGKLILQRNIGLEIKDVQIIKQSEKEYIRIDAKVVPKSKIDTKIQEAQLNINQEWNKALGLPKYTKLITFNVHNRYASNIVESAYLILNEWKNNIQSDLIKKVTNYLVDGNGRFVFTDITLPNIAEQYTHQDEIYEQVHSKGLYVPESRSILLHGPSKGVELRNDSEGFIHEFGHAVDDYAGYLLDKNQSDLVTNSKKFIDIFKEEGSNLTSYGRTNEAEFFAEAFRLMHSTDHAERLKVQKNAPKTFQFINDQIKFIINS
With B1, the “stoichiometry N” value was 2 LF molecules per PA63 channel.
